This note sets out measurements from patent US20240401082A1 (Sanofi, published 2024).

In assay [1] the target is T1, human complement C1s enzyme (activated C1s) (human, UniProt P09871 16-437; P09871 438-688).
T1 construct: Bought from Complement Technology; Disulfide-linked heterodimer; Biotinylated with EZ-Link Sulfo-NHS-LC-LC-Biotin when captured in BLI; also called active C1s; aC1s
T1 sequence 1: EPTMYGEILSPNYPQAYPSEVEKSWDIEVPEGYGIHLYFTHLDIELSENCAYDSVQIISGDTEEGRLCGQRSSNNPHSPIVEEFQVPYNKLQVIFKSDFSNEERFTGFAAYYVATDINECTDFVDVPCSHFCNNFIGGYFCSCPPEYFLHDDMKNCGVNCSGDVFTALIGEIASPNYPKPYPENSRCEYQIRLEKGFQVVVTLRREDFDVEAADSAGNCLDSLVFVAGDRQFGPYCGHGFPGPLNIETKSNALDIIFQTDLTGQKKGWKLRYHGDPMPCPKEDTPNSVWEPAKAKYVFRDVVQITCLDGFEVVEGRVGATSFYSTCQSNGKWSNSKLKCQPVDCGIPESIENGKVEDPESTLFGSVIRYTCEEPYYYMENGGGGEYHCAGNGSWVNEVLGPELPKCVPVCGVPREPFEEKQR
T1 sequence 2: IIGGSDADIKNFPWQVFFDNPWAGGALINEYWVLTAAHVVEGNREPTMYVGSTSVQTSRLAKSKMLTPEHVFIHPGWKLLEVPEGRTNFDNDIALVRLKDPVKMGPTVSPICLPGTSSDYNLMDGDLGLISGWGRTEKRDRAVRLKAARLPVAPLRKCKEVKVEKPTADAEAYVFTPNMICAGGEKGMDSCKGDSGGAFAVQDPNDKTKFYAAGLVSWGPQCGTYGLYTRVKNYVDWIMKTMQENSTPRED
The assay is described as follows: BLI (Octet), biotinylated target on streptavidin sensor; mixture of the two scFabs from construct #9. The text has this:
(§1) Bio-layer interferometry (BLI) was used to assess the recombinant proteins' target engagement to and binding affinity for complement C1s enzyme (active C1s or “C1s” herein) and factor Bb (Bb) (Complement Technology, Tyler, TX, USA). C1s and Bb were biotinylated with EZ-Link™ Sulfo-NHS-LC-LC-Biotin (Thermo Fisher, Waltham, MA, USA) according to manufacturer instructions. Biotinylated C1s or Bb was loaded on Octet® Streptavidin (SA) Biosensors (Sartorius, Göttingen, Germany), followed by a concentration range of purified proteins. To assess dual target engagement, biotinylated active C1s or Bb was loaded onto sensors, followed by purified proteins (“first association phase”), followed by the non-captured complement target (Bb or active C1s, non-biotinylated; “second association phase”). The assays were performed at 30° C. using PBS with 0.1% Tween 20 as a diluent (FIG. 3).

Assay [2] deals with T1, human complement C1s enzyme (activated …). Put plainly: SPR, purified protein.
Assay [3] has the same target. Put plainly: method not given.
The target is the same in assay [4]. Put plainly: BLI (Octet), biotinylated target on streptavidin sensor; protein purified to >98%.
Source text: as §1

Assay [5] addresses cynomolgus C1s (cynomolgus). The assay is described as follows: method not given.
The target in assay [6] is T1, human complement C1s enzyme (activated …). Put plainly: cell-based or functional assay.
Assay [7] shares this target. The assay is described as follows: cell-based or functional assay. The source holds these as a separate data set.
The target is the same in assay [8]. The assay is described as follows: BLI (Octet), biotinylated target on streptavidin sensor.
Assay [9] shares this target. Put plainly: BLI (Octet), biotinylated target on streptavidin sensor; mixture of the two scFabs from construct #9; mixture of the two scFabs from construct #9.
The target is the same in assay [10]. Put plainly: cell-based or functional assay. The source holds these as a separate data set.
For assay [11] the target is unchanged. Put plainly: cell-based or functional assay. The source holds these as a separate data set.
For assay [12] the target is unchanged. The assay is described as follows: cell-based or functional assay. The source holds these as a separate data set.
Assay [13] shares this target. The assay is described as follows: BLI (Octet), biotinylated target on streptavidin sensor; partially purified mixture of the two scFabs from construct #9.
Source text: as §1
The third expression construct, construct #9 (FIGS. 2B and 21), is composed of a bidirectional minCBA promoter driving expression of separate transcripts encoding human codon-optimized αBb scFab or αC1s scFab [αC1s scFab+αBb scFab], each followed by a bGH poly (A) signal.

The target is the same in assay [14]. Put plainly: cell-based or functional assay. This is another data set of the same source.
Assay [15] shares this target. The assay is described as follows: BLI (Octet), biotinylated target on streptavidin sensor. This is another data set of the same source.

B1: anti-C1s scFab (construct #2) (Fab)
chain: DIVLTQSPDSLAVSLGERATISCKASQSVDYDGDSYMNWYQQKPGQPPKILIYDASNLESGIPARFSGSGSGTDFTLTISSLEPEDFAIYYCQQSNEDPWTFGGGTKVEIKRTVAAPSVFIFPPSDEQLKSGTASVVCLLNNFYPREAKVQWKVDNALQSGNSQESVTEQDSKDSTYSLSSTLTLSKADYEKHKVYACEVTHQGLSSPVTKSFNRGECGGGGSGGGGSGGGGSGGGGSGGGGSGGGGSGGGGSQVQLVQSGAEVKKPGASVKLSCTASGFNIKDDYIHWVKQAPGQGLEWIGRIDPADGHTKYAPKFQVKVTITADTSTSTAYLELSSLRSEDTAVYYCARYGYGREVFDYWGQGTTVTVSSASTKGPSVFPLAPCSRSTSESTAALGCLVKDYFPEPVTVSWNSGALTSGVHTFPAVLQSSGLYSLSSVVTVPSSSLGTKTYTCNVDHKPSNTKVDKRV
notes: Single-chain Fab: LC-(G4S)7-HC (VH-CH1); there it stood in a mixture with the anti-Bb scFab; also called αC1s scFab; Purified anti-C1s scFab
In the case of B1, the off-rate (koff) in assay [1] came out at 0.00028 s⁻¹. For the same molecule, the on-rate (kon) in assay [1] stood at 150000 M⁻¹ s⁻¹. Also, the Kd is 0.3 nM in [2]; 0.34 nM in assay [3]; 0.3 nM in assay [4]; 0.016 nM in assay [5]; 0.3 nM in assay [8]; 1.9 nM in assay [9]. The Kd in assay [13] came out at 1.8 nM. Also, in assay [6], the “Wieslab classical pathway IC50” value stood at 6.7 nM. Besides, in assay [7], the “IC50 (nM), complement activation with CP and AP activated simultaneously in vitro” value was found to be 97.3 nM. The “Wieslab CP IC50 of #9-derived fragments, fold of purified anti-C1s Fab” value in assay [10] is approximately 25 fold. The “CP IC50 (Wieslab), mixture of scFabs from construct #9” value in assay [11] turned out to be 157 nM. Moreover, the “IC50 CP (Wieslab)” value in assay [12] came to 7.2 nM. Moreover, the “IC50 CP (Wieslab), mixture of scFabs from construct #9” value in assay [12] stood at 157 nM. Moreover, the “IC50 CP Wieslab EIA” value in assay [14] came out at 7.2 nM.

B2: parental anti-C1s Fab (Fab, V domains shown)
VH: QVQLVQSGAEVKKPGASVKLSCTASGFNIKDDYIHWVKQAPGQGLEWIGRIDPADGHTKYAPKFQVKVTITADTSTSTAYLELSSLRSEDTAVYYCARYGYGREVFDYWGQGTTVTVSS
VL: DIVLTQSPDSLAVSLGERATISCKASQSVDYDGDSYMNWYQQKPGQPPKILIYDASNLESGIPARFSGSGSGTDFTLTISSLEPEDFAIYYCQQSNEDPWTFGGGTKVEIKR
notes: also called Purified anti-C1s Fab
Regarding B2, the dissociation constant (Kd) in assay [2], in assay [8] and in [15] was 0.3 nM in each case. Also, the “Wieslab classical pathway IC50” value in [6] was determined as 5.5 nM. The “IC50 (nM), complement activation with CP and AP activated simultaneously in vitro” value in assay [7] came to 68.2 nM. Moreover, the “CP IC50 (Wieslab)” value in assay [11] was 6 nM. Moreover, in assay [12], the “IC50 CP (Wieslab)” value worked out at 5.4 nM.
